From the supplement of paper PMC9732359
± gives the uncertainty stated by the source.

Test: protein stability index of a GFP-peptide fusion (yeast GPS) (PSI 1-4); higher = more stable; sorted into four equal gates, so the index is relative within each strain
Procedure, shortened: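 Yeast carrying a pooled library were grown to mid-log phase in leucine-free medium. Each library plasmid expresses Cherry and has a tiled 17-residue yeast protein peptide fused downstream of GFP. Cells were sorted into four equal gates by GFP/Cherry ratio, and plasmids from each gate were PCR-amplified, Illumina-sequenced and assigned to strains by barcode. Summing, across gates, the read frequency times the gate number gave each peptide's protein stability index.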

Sequence	protein stability index (doa10∆)	protein stability index (pdr5∆)	protein stability index (san1∆)	protein stability index (ubr1∆)
MFTQIYLERIELSFYIL [YML103C/NUP188]	1.66 ± 0.1	1.46 ± 0.074	1.36 ± 0.1	1.75 ± 0.12
ETTTQFKATHILDFGPG [FAS1]	2.44 ± 0.081	2 ± 0.094	2.16 ± 0.084	2.25 ± 0.054
IEPLEINIQSFKDVEHI [BRR2]	2.5 ± 0.069	2.31 ± 0.062	2.12 ± 0.074	2.67 ± 0.068
KKVVLRLECVKCKTRAQ [RPL42A]	2.3 ± 0.12	2.03 ± 0.095	2.4 ± 0.16	2.09 ± 0.047
AMIALSMILIQQTEKLN [RPN2]	1.32 ± 0.077	1.35 ± 0.066	1.45 ± 0.14	1.6 ± 0.064
VVLRLYLKDNITLLTRQ [GRR1]	1.88 ± 0.057	1.75 ± 0.084	1.34 ± 0.11	1.98 ± 0.067
TQPKSSSSMDMQANTNA [SSN3]	2.55 ± 0.06	2.43 ± 0.046	3.13 ± 0.041	2.45 ± 0.039
NIPQQQQMQPPNSSANN [GAL11]	2.82 ± 0.062	2.9 ± 0.062	2.85 ± 0.048	2.75 ± 0.041
SFLDPLNYGNICEPKET [YJL039C/NUP192]	3.33 ± 0.12	2.81 ± 0.085	3.01 ± 0.095	2.66 ± 0.093
KSVYETPKITAAEKSFK [SEC65]		2.08 ± 0.19		1.53 ± 0.08
EEERRKKRESGVEEEEE [SNF2]	3.49 ± 0.079	3.35 ± 0.1	3.38 ± 0.11	3.46 ± 0.047
EVSMNSIFAMGLCGAGT [RPN1]	1.68 ± 0.047	1.61 ± 0.058	1.49 ± 0.091	1.23 ± 0.052
FCGKKTVKRGAAGIWTC [RPL43A]	1.79 ± 0.072	1.88 ± 0.071	2.19 ± 0.11	1.92 ± 0.059
ANYIKERTKNAQFIVIS [SMC4]	2.76 ± 0.11	1.5 ± 0.067	1.49 ± 0.11	2.27 ± 0.071
AQAQAQAQAQAQAQAQA [GAL11]	2.95 ± 0.03	3.23 ± 0.035	2.98 ± 0.026	3.09 ± 0.033
NVDNQTSDLVKSLGLKL [RPS17A]	3.2 ± 0.087	3.29 ± 0.084	3.35 ± 0.066	3.06 ± 0.075
KIKPYVRSFSKALDELK [LRP1]	2.52 ± 0.04	2.95 ± 0.037	2.35 ± 0.047	2.68 ± 0.027
LFQVEYSLEAIKLGSTA [PUP2]	1.61 ± 0.075	2.32 ± 0.069	2.08 ± 0.12	2.2 ± 0.053
NNTNTGASGVDDFQNFF [SWI1]	2.92 ± 0.068	3.16 ± 0.065	2.87 ± 0.069	3.31 ± 0.045
AIIRLHPSIYTQVFNIL [POP1]	2.02 ± 0.051	1.22 ± 0.047	1.2 ± 0.09	1.22 ± 0.036
IVGVLQDDADPMVSVMK [RPT2]	1.99 ± 0.057	2.31 ± 0.057	2.49 ± 0.11	2.26 ± 0.056
ILYGLVDKGAIMKNKDF [YJL039C/NUP192]		2.32 ± 0.2	3.06 ± 0.21	1.58 ± 0.15
VRNLQGIQEVVHNTNSF [NUT1]	2.98 ± 0.079	3.15 ± 0.068	2.94 ± 0.063	3.17 ± 0.063
DVNALKFNNTQRESQIG [SNF12]	2.31 ± 0.092	2.75 ± 0.067	2.68 ± 0.077	3.12 ± 0.063
QCYKIYDLVILKSGLPL [YMR129W/POM152]		2.04 ± 0.12	2.25 ± 0.14	1.29 ± 0.059
ESGLRPVSLLNSQLVGK [PCI8]	3.31 ± 0.13	3.43 ± 0.096	3.27 ± 0.061	3.09 ± 0.27

Sequence	protein stability index (doa10∆)	protein stability index (pdr5∆)	protein stability index (san1∆)	protein stability index (ubr1∆)
VHPDYLYGAITEDRYNE [FAS2]	1.08 ± 0.092	1.34 ± 0.097	1.14 ± 0.15	1.27 ± 0.086
IVPDLIINPHAIPSRMT [RPB2]	1.81 ± 0.048	2 ± 0.042	1.75 ± 0.068	2.16 ± 0.047
GLNAKQLYKARMSIKLL [POP1]	2.13 ± 0.082	1.73 ± 0.08	2.41 ± 0.06	2.37 ± 0.029
AKLNHLKKLEKFMELER [SWI3]	2.9 ± 0.064	2.83 ± 0.069	3.03 ± 0.054	2.66 ± 0.058
KLNVDQFISSRQFEVKQ [POP1]	2.99 ± 0.053	3.08 ± 0.055	3.01 ± 0.041	2.97 ± 0.059
VFSALKNLISRINTLPQ [ECM29]	3.06 ± 0.12	2.36 ± 0.091	1.76 ± 0.22	2.71 ± 0.051
KTLNLFKQIKSADCELL [RPO31]	1.22 ± 0.21	1.06 ± 0.035	1.23 ± 0.29	1.05 ± 0.094
ISDYQQLESIYFRILLP [SWI1]	2.24 ± 0.045	2.33 ± 0.037	2.06 ± 0.049	2.34 ± 0.065
LKNVEETQEIKENDTVM [ESC2]	2.86 ± 0.097	3 ± 0.075	2.92 ± 0.14	3.16 ± 0.074
KRSGVIETVDDKLKDIV [ITC1]	3.15 ± 0.29	3 ± 0.3		
SKSTSMKLSMPPEVTSS [POP1]	2.4 ± 0.053	2.59 ± 0.062	2.44 ± 0.057	2.54 ± 0.035
VNTEKKTIEVTAEINCF [RPN3]		1.35 ± 0.11	1.78 ± 0.21	1.62 ± 0.16
GPNNFIWPAEDALRRGM [MED4]	3.35 ± 0.13	3.15 ± 0.11	3.03 ± 0.079	3.27 ± 0.08
KNSDVWFLDHNYIENMN [RPN8]	2.68 ± 0.1	2.44 ± 0.094	2.57 ± 0.11	2.41 ± 0.057
EVGMKVQSGQIYINKSV [RET1]	2.83 ± 0.074	3.05 ± 0.073	2.6 ± 0.082	3.08 ± 0.069
IEQLFPVRPVRVRHEDV [RPC53]	2.9 ± 0.076	2.97 ± 0.048	2.89 ± 0.055	3.03 ± 0.037
LAYAVLGIALIALGEDI [RPN1]	1.73 ± 0.094	1.72 ± 0.094	1.98 ± 0.11	2.33 ± 0.06
STSLGIPDFRSSEGFYS [SIR2]	1.85 ± 0.27	1.62 ± 0.089		3.36 ± 0.14
PFFKYIDDANVTRKQED [RPC37]	2.55 ± 0.091	2.12 ± 0.064	2.34 ± 0.083	2.52 ± 0.061
RLQFAQGSVRRLTVSAR [QCR2]	1.33 ± 0.075	1.39 ± 0.13	1.77 ± 0.27	1.14 ± 0.073
KYLIKYNVFRQHTSFQE [CSI1]	1.24 ± 0.069	1.2 ± 0.046	1.13 ± 0.14	1.19 ± 0.058
GQGEQVDDVLETISAIE [RPN1]	3.4 ± 0.27	3.05 ± 0.18	2.69 ± 0.19	2.91 ± 0.19
QLKWAQNTIDDTEMKMK [YIL149C/MLP2]	2.15 ± 0.046	2.88 ± 0.056	2.71 ± 0.059	2.74 ± 0.059
FSMGHIRSSSVSLVAEA [MED4]	1.52 ± 0.078	1.67 ± 0.057	1.31 ± 0.14	1.69 ± 0.033
SNQFKRSLATAVATPKA [COR1]	1.55 ± 0.051	1.75 ± 0.049	1.35 ± 0.089	1.3 ± 0.041
SSNIVNENDSQAIITER [YIL149C/MLP2]	3.14 ± 0.12	2.93 ± 0.086	2.07 ± 0.26	2.86 ± 0.057
